Data reported in patent US20220154138A1, “METHOD OF PRODUCING PLACENTA-LIKE ORGANOID, PLACENTA-LIKE ORGANOID, AND PRODUCTION OR TEST KIT” (FUJIFILM Corporation, priority 2020, published 2022).

Assays:
iPS cells [1] = assay: Two-dimensional adhesion culture of iPS cells with BMP4, hCG in culture supernatant by GONASTICK W; assay type: cell-based, human; details: 2D adhesion culture, StemFit, BMP4 present
Method: In GONASTICK W, about 0.5 to 1 mL of the culture supernatant was sampled, and a test strip was soaked therein. After the soaking was completed, the determination surface of the test strip was placed to face upward and allowed to stand until the culture supernatant passed through the determination window and reached the reaction end window. […] The detection sensitivity of the present examination reagent is 25 IU/L, and a blue control line corresponding to an hCG concentration of 1,000 IU/L is printed in advance on the determination window, which can be visually compared with the determination line.
In a case where a line equal to or more blue-colored than the control line was visually observed on the determination line, it was judged as positive (+).
In a case where the line was not visually observed on the determination line, it was determined to be negative (−).
In a case where a line that was less blue-colored than the control line but was visible was visually observed on the determination line, it was determined to be (+/−).
Laminin (iMatrix-511: Nippi. Inc.) was diluted with Dulbecco's phosphate buffered saline (DPBS), 1 mL thereof per well was dispensed into a 6-well plate (Falcon TC: #353046), and the plate was allowed to stand in a 37° C. incubator for 1 hour to be coated with laminin. 2 mL of an iPS cell medium (StemFit (registered trade name) AK02N: Ajinomoto Co., Inc.) to which 2 μL of a solution containing 50 μg/mL BMP4 (R&D Systems Inc.) had been added was dispensed into the laminin-coated plate, and iPS cells (4×10^4 cells/well) were seeded therein. The culture was continued while appropriately changing the medium, and the hCG contained in the culture supernatant was detected using a drug for in vitro diagnosis for the pregnancy test, GONASTICK W (MOCHIDA PHARMACEUTICAL Co., Ltd.), whereby the differentiation induction into a placental tissue was checked. As a negative control, the same culture was carried out using a medium to which BMP4 had not been added. The hCG was started to be produced on the 7th day of culture; however, the hCG production stopped around the 18th day (Table 1).

iPS cells [2] = assay: Two-dimensional adhesion culture with BMP4, hCG quantified by i-STAT cartridge Total β-hCG; assay type: cell-based, human
Method: In the i-STAT cartridge Total β-hCG, about 17 μL of the culture supernatant was sampled, injected into the reagent cartridge, and inserted into the single-purpose analyzer.
Two-dimensional adhesion culture was carried out by the following method. Laminin (iMatrix-511: Nippi. Inc.) was diluted with Dulbecco's phosphate buffered saline (DPBS), 1 mL thereof per well was dispensed into a 6-well plate (Falcon TC: #353046), and the plate was allowed to stand in a 37° C. incubator for 1 hour to be coated with laminin. 2 mL of an iPS cell medium (StemFit (registered trade name) AK02N: Ajinomoto Co., Inc.) was dispensed into the laminin-coated plate in a state where a BMP4 solution was not added, iPS cells (4×10^4 cells/well) were seeded therein, the culture was continued while appropriately changing the medium, and from the 4th day of culture, 2 mL of an iPS cell culture medium (StemFit (registered trade name) AK02N: Ajinomoto Co., Inc.) to which 2 μL of a solution containing 50 μg/mL BMP4 (R&D Systems Inc.) solution had been added so that the BMP4 concentration was to be 50 ng/mL was used at the time of the medium exchange.
On the other hand, three-dimensional suspension culture was started at the same time using the same iPS cells used in the two-dimensional culture adhesion culture. 30 mL of an iPS cell medium (StemFit (registered trade name) AK02N: Ajinomoto Co., Inc.) was dispensed into a 30 mL volume spinner flask (ABLE Corporation), and then iPS cells (1.3×10^6 cells/mL) were seeded. In the same manner as in the two-dimensional adhesion culture, BMP4 was not added at the start of culture, but a medium to which a solution containing 50 μg/mL BMP4 (R&D Systems Inc.) was added at the same proportion as that used in the two-dimensional adhesion culture was used after the 4th day of culture. After the start of culture, the addition of BMP4 to the medium was continued until the 14th day of culture while the medium was exchanged every 3 to 4 days, and thereafter, a medium to which BMP4 had not been added was used. In three-dimensional suspension culture, stirring culture was continued in a spinner flask throughout the culture period. While continuing the two-dimensional adhesion culture and the three-dimensional suspension culture, the culture supernatant was appropriately sampled after the 7th day of culture, and the amount of hCG produced was quantified using the i-STAT cartridge Total β-hCG. Since there are differences in the number of cells that can be seeded at the start of culture and the adding amount of medium between the two-dimensional culture and the three-dimensional culture, there are differences in the hCG concentration and the total hCG production in the culture supernatant, and thus it is not possible to simply compare them. For this reason, the hCG quantification value on the 7th day of culture after the start of differentiation induction into the placenta was set to 100, and the ratio of the hCG quantification value on the subsequent culture measurement day to the hCG quantification value on the 7th day of culture was calculated. That is, in a case where the hCG quantification value on the 7th day is set to 100 in each of the two-dimensional and three-dimensional culture forms, the subsequent changes after the 7th day in the hCG production amount are shown in FIG. 2. It was confirmed that in the two-dimensional culture, the decrease in hCG production amount is particularly remarkable after the 15th day of culture, whereas in the three-dimensional culture, the hCG continues to be produced after the 15th day, and even on the 25th day of culture, 10 times or more of the hCG production is maintained as compared with the 7th day of culture.

B1: BMP4: bone morphogenetic protein BMP4 (R&D Systems Inc.), added to iPS cell medium at 50 ng/mL to induce differentiation (protein, UniProt P12644 293-408, looked up)
Bone morphogenetic protein 4: SPKHHSQRARKKNKNCRRHSLYVDFSDVGWNDWIVAPPGYQAFYCHGDCPFPLADHLNSTNHAIVQTLVNSVNSSIPKACCVPTELSAISMLYLDEYDKVVLKNYQEMVVEGCGCR
In the case of B1, the hCG production (iPS cells [1]; day 7) is reported as “+ (a line equal to or more blue-colored than the control line was visually observed on the determination line, it was judged as positive (+))”, the hCG production (iPS cells [1]; day 11) is reported as “+ (a line equal to or more blue-colored than the control line was visually observed on the determination line, it was judged as positive (+))” and the hCG production (iPS cells [1]; day 15) is reported as “+ (a line equal to or more blue-colored than the control line was visually observed on the determination line, it was judged as positive (+))”. The hCG production (iPS cells [1]; day 18) was “+/− (a line that was less blue-colored than the control line but was visible was visually observed on the determination line, it was determined to be (+/−))”, the hCG production (iPS cells [1]; day 21) was “− (the line was not visually observed on the determination line, it was determined to be negative (−))” and the hCG production (iPS cells [2]; BMP4 50 ng/mL from day 4, day 7) was 6.6 IU. For the same molecule, the “hCG* production (hCG production on each of culture days/hCG production amount on 7th day) × 100” value (iPS cells [2]; day 7) was 100 AU, the hCG production (iPS cells [2]; day 11) was 8.0 IU and the “hCG* production (relative to 7th day × 100)” value (iPS cells [2]; day 11) was 120 AU. The hCG production (iPS cells [2]; day 15) was 5.0 IU, the “hCG* production (relative to 7th day × 100)” value (iPS cells [2]; day 15) was 75 AU and the hCG production (iPS cells [2]; day 18) was 4.1 IU. The “hCG* production (relative to 7th day × 100)” value (iPS cells [2]; day 18) was 62 AU, the hCG production (iPS cells [2]; day 22) was 1.4 IU and the “hCG* production (relative to 7th day × 100)” value (iPS cells [2]; day 22) was 20 AU. The hCG production (iPS cells [2]; day 25) was 1.6 IU and the “hCG* production (relative to 7th day × 100)” value (iPS cells [2]; day 25) was 25 AU.
